Publication PMC12410373, “Sad from Proteobacteria is a Structurally Distinct ALDH3 Enzyme Specialized for the Oxidation of Steroidal Aldehydes” (Biochemistry, 2025)

Columns and labels:
[1] = tested on: C[C@H](C=O)[C@H]1CC[C@H]2[C@@H]3CCC4=CC(=O)CC[C@]4(C)[C@H]3CC[C@]12C; assay: purified protein; settings: 1 mM NAD+, 100 mM HEPES pH 7.5, 25 °C
O=Cc1ccccc1 [2] = assay: purified protein; settings: 1 mM NAD+, 100 mM HEPES pH 7.5, 25 °C
[3] = tested on: T1, C[C@H](C=O)[C@H]1CC[C@H]2[C@@H]3CCC4=CC(=O)CC[C@]4(C)[C@H]3CC[C@]12C; assay: purified protein; type: biochemical, Pseudomonas putida; settings: 1 mM NAD+, 100 mM HEPES pH 7.5, 25 °C
T1 construct: full-length, His tag (pET28a, NdeI/HindIII), E. coli BL21 LOBSTR

O=Cc1ccccc1 [4] = tested on: T2, O=Cc1ccccc1; assay: purified protein; type: biochemical, Pseudomonas putida; settings: 1 mM NAD+, 100 mM HEPES pH 7.5, 25 °C
T2 construct: full-length, His tag (pET28a, NdeI/HindIII), E. coli BL21 LOBSTR

[5] = biological target: steroid aldehyde dehydrogenase (Sad) from Caldimonas tepidiphilia (Caldimonas tepidiphilia); assay: crystal structure; X-ray, 1.8 Å; sitting-drop vapor diffusion at 4 °C, 20 mg/mL Sad_(Ctepid), 40% MPD, 3% PEG 8000, 0.1 M sodium cacodylate pH 6.5, 10% glycerol; interface analysed with PISA

Substance | Km [1] [µM] | kcat [1] [s⁻¹] | kcat/Km [1] [M⁻¹ s⁻¹] | Km (O=Cc1ccccc1 [2]) [µM] | other results
PpBADH (Pseudomonas putida; L125T) | 18.94 ± 1.07 | 0.0291 ± 0.000667 | 1540 ± 36.8 | 3.18 ± 0.216 | 
PpBADH (Pseudomonas putida; F400A/L125T) |  |  |  |  | Km [3]: 1.73 ± 0.0801 µM; kcat [3]: 0.0431 ± 0.000719 s⁻¹; kcat/Km [3]: 24900 ± 1230 M⁻¹ s⁻¹; Km (O=Cc1ccccc1 [4]): 40.97 ± 2.58 µM; kcat (O=Cc1ccccc1 [4]): 0.037 ± 0.000756 s⁻¹; kcat/Km (O=Cc1ccccc1 [4]): 903 ± 59.8 M⁻¹ s⁻¹
steroid aldehyde dehydrogenase (Sad) from Caldimonas tepidiphilia (enzyme) |  |  |  |  | stoichiometry N [5]: 2
SadCtest (Comamonas testosteroni) | 1.93 ± 0.118 | 3.57 ± 0.0818 |  |  | 
PpBADH (Pseudomonas putida; Y121A) |  |  |  | 700.4 ± 31.9 | 
PpBADH (Pseudomonas putida; F400A) | 4.35 ± 0.167 | 0.00284 ± 3.34e-05 | 653 ± 75.1 | 59.5 ± 2.59 | 
